Reference: patent US7144731B2, “SCF antibody compositions and methods of using the same” (Amgen Inc., priority 1989, dated 2006)

How the values were obtained:
[1] = tested on: human bone marrow; test: Human bone marrow colony assay; type: cell-based
Procedure, shortened: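 COS-1-expressed human SCF (aa 1–162), alone or with other growth factors, was tested on Ficoll-separated healthy human bone marrow. Cultures were grown in methylcellulose with 30% FCS and 20 U/ml EPO for 14 days at 7% O2. Colonies ≥0.2 mm were scored.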

[2] = target: T1, murine c-kit (mckit-L1) (Mus musculus, UniProt P05532); test: ^125I-SCF^1-164 binding to recombinant c-kit in COS-1 cells
T1 construct: expressed in transfected cells; host or cells: COS-1 cells transfected with V19.8 carrying c-kit cDNA cloned from MC/9 mast cells; membrane fractions used
T1 sequence (P05532 25-979): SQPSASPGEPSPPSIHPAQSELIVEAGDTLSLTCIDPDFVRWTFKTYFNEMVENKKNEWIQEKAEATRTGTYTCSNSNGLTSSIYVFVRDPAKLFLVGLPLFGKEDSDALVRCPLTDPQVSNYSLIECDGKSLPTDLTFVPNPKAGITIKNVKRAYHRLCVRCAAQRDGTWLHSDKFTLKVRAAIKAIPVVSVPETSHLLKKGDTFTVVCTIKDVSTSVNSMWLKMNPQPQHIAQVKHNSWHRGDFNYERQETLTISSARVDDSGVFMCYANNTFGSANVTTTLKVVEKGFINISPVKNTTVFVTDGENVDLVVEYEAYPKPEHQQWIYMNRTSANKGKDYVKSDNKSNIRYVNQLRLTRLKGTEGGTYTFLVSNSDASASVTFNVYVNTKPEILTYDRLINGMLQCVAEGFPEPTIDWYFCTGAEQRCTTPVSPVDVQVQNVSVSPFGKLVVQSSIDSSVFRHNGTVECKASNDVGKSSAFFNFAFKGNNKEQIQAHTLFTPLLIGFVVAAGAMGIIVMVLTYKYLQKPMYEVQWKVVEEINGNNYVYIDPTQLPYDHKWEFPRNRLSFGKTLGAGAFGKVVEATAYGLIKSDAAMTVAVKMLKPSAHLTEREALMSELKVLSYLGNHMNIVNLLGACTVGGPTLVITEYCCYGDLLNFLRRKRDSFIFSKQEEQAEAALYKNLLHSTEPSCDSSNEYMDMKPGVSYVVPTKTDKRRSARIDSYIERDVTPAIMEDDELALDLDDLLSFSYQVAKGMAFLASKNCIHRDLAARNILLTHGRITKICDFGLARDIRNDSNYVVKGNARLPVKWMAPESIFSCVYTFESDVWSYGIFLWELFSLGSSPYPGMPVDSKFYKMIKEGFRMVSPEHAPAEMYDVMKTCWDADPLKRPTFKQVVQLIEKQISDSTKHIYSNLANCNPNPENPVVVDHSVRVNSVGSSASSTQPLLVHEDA
Source text: (§1) To test whether SCF^1-164 is the ligand for c-kit, the cDNA for the entire murine c-kit [Qiu et al., EMBO J., 7, 1003–1011 (1988)] was amplified using PCR from the SCF^1-164 responsive mast cell line MC/9 [Nabel et al., Nature, 291, 332–334 (1981)] with primers designed from the published sequence. The ligand binding and transmembrane domains of human c-kit, encoded by amino acids 1–549 [Yarden et al., EMBO J., 6, 3341–3351 (1987)], were cloned using similar techniques from the human erythroleukemia cell line, HEL [Martin and Papayannopoulou, Science, 216, 1233–1235 (1982)]. The c-kit cDNAs were inserted into the mammalian expression vector V19.8 transfected into COS-1 cells, and membrane fractions prepared for binding assays using either rat or human ^125I-SCF^1-164 according to the methods described in Sections B and C below. […] There was no detectable specific binding of ^125I human SCF^1-164 to COS-1 cells transfected with V19.8 alone. However, COS-1 cells expressing human recombinant c-kit ligand binding plus transmembrane domains (hckit-LT1) did bind ^125I-hSCF^1-164 (Table 17). The addition of a 200 fold molar excess of unlabelled human SCF^1-164 reduced binding to background levels. Similarly, COS-1 cells transfected with the full length murine c-kit (mckit-L1) bound rat ^125I-SCF^1-164. […] This finding is in accord with the broad cellular distribution of c-kit expression. Rat ^125I-SCF^1-164 binds similarly to both human and murine c-kit, while human ^125I-SCF^1-164 bind with lower activity to murine c-kit (Table 17).
(§2) Human and murine c-kit cDNA clones were derived using PCR techniques [Saiki et al., Science, 239, 487–491 (1988)] from total RNA isolated by an acid phenol/chloroform extraction procedure [Chomczynsky and Sacchi, Anal. Biochem., 162, 156–159, (1987)] from the human erythroleukemia cell line HEL and MC/9 cells, respectively. Unique sequence oligonucleotides were designed from the published human and murine c-kit sequences. First strand cDNA was synthesized from the total RNA according to the protocol provided with the enzyme, Mo-MLV reverse transcription (Bethesda Research Laboratories, Bethesda, Md.), using c-kit antisense oligonucleotides as primers. Amplification of overlapping regions of the c-kit ligand binding and tyrosine kinase domains was accomplished using appropriate pairs of c-kit primers. These regions were cloned into the mammalian expression vector V19.8 (FIG. 17) for expression in COS-1 cells. […] A clone free of these mutations was constructed by reassembly of mutation-free restriction fragments from separate clones. […]

[3] = target: T2, human c-kit (hckit-LT1) (Homo sapiens, UniProt P10721); test: as above
T2 construct: expressed in transfected cells; host or cells: COS-1 cells transfected with V19.8 carrying c-kit cDNA cloned from HEL cells; membrane fractions used
Source text: as §1, §2

B1: rrSCF^1-164: recombinant rat SCF^1-164 from E. coli, also used ^125I-labelled (protein)
chain: QEICRNPVTDNVKDITKLVANLPNDYMITLNYVAGMDVLPSHCWLRDMVTHLSVSLTTLLDKFSNISEGLSNYSIIDKLGKIVDDLVACMEENAPKNVKESLKKPETRNFTPEEFFSIFNRSIDAFKDFMVASDTSDCVLSSTLGPEKDSRVSVTKPFMLPPVA
For B1, the “specific activity in proliferation of human bone marrow” value [1] was “specific activity similar to that of human SCF^1-164”, the “CPM Bound, ^125I-SCF + cold” value ([2]; 1.6 nM ^125I-SCF^1-164 + 320 nM unlabelled SCF^1-164, V19.8:mckit-L1) was 600 CPM and the “CPM Bound, ^125I-SCF” value ([2]; 1.6 nM ^125I-SCF^1-164, plasmid V19.8:mckit-L1) was 52,700 CPM. For the same molecule, the “CPM Bound, ^125I-SCF + cold” value ([3]; 1.6 nM ^125I-SCF^1-164 + 320 nM unlabelled SCF^1-164, V19.8:hckit-LT1) was 1,100 CPM and the “CPM Bound, ^125I-SCF” value ([3]; 1.6 nM ^125I-SCF^1-164, plasmid V19.8:hckit-LT1) was 70,000 CPM.
